The source of these data is US11787850B2, “Peptidic TGF-beta antagonists” (priority 2015, dated 2023).

Data set [1] has as its system TGF-β1-induced PAI-1 protein production in A431 cells. Kind of data set: Western blot for PAI-1 in A431 cells. It counts as cell-based. The following applies: 10 nM peptide, 100 pM TGF-β1, 24 hrs (FIG. 7). Here is the method: FIG. 7 illustrates that the small molecular weight CD109-based peptide P16 (but not P11 or P16-1) inhibits TGF-β1-induced PAI-protein production. A431 cells were treated without (lane 1) or with 100 pM of TGF-β1 (lanes 2-6) in the absence (lane 2) or presence of 10 nM of P11 (11 aa peptide, lane 3), P16 (16 aa peptide, lane 4), P16-1 (scrambled peptide of 16 aa, lane 5) or Tris buffer (buffer, lane 6) for 24 hrs. Cell lysates were analyzed by Western blot for PAI-1 ([…]) protein levels and normalized to GAPDH protein levels (loading control). In the conditions tested, P16 (but not P11) inhibited TGF-β1-induced PAI-1 expression.
A431 cells were treated for 18 hours without (−) or with (+) 100 pM TGF-β1 in the presence or absence of Peptide X or P16. The peptides were previously dissolved in Tris buffer and left untreated or treated with DMSO prior to addition to the cells. Cell lysates were analyzed by Western blot for PAI-1 (plasminogen activator inhibitor-1) protein expression (top panel) and GAPDH served as a loading control (bottom panel). PAI-1 was not detected in untreated cells (lane 1).
A431 cells were grown in 6-well plates to 70-80% confluency and serum-starved overnight. Cells were washed with PBS and treated with or without TGF-β1 in presence or absence of various CD109-based peptides as indicated in the figure legends. Cells were solubilized with 500 μl of lysis buffer (50 mM Tris, pH 7.5, 150 mM NaCl, 50 mM NaF, 50 mM β-glycerophosphate, 1 mM sodium orthovanadate, 1 mM dithiothreitol, 5 mM EDTA, pH 8.0, 1% Nonidet P-40, 10% glycerol, 10 μM phenylmethylsulfonyl fluoride, 200 μg/ml bovine serum albumin, 1 μg/ml leupeptin, […] soybean trypsin inhibitor, 10 μg/ml benzamide, and 2 μg/ml pepstatin) for 30 min at 4° C. with mild agitation. Cell lysates were collected and centrifuged for 10 min at 10,000×g. The supernatants were collected and protein concentrations were determined using the Bio-Rad protein assay kit. Lysates containing equivalent protein concentrations were mixed with 0.2 volume of 5× electrophoresis sample buffer containing 5% β-mercaptoethanol and boiled for 5 min. Samples were resolved on 7.5% SDS-polyacrylamide gels and transferred to nitrocellulose membranes. Membranes were blocked for 3 h in blocking buffer (30 mM Tris, pH 7.5, 150 mM NaCl, and 0.05% (w/v) Tween 20™ (Tris-buffered saline/Tween) containing 5% (w/v) skim milk powder). The blot was incubated overnight at 4° C. with a 1:1000 dilution of anti-PAI-1 antibody (BD Biosciences). Blots were washed with Tris-buffered saline/Tween and incubated for 45 min at room temperature with a 1:5000 dilution of secondary antibody conjugated to horseradish peroxidase (Pierce). Chemiluminescence detection of the immune complexes was performed using the ECL system (Amersham Biosciences) according to the manufacturer's instructions. The membranes were stripped and reprobed with an anti-GAPDH antibody to confirm equal protein loading.
A431 cells were treated without (lane 1) or with 100 pM of TGF-β1 (lanes 2-6) in the absence (lane 2) or presence of 10 nM of P11 (11 aa peptide, lane 3), P16 (16 aa peptide, lane 4), P16-1 (scrambled peptide of 16 aa, lane 5) or Tris buffer (buffer, lane 6) for 24 hrs. Cell lysates were analyzed by Western blot for PAI-1 ([…]) protein levels and normalized to GAPDH protein levels (loading control).
A431 squamous cell carcinoma cells were treated for 18 hours without (−) or with (+) 100 pM TGF-β1 in the presence or absence of Peptide X or P16. The peptides were dissolved in Tris buffer and left untreated or treated with 0.5% DMSO prior to addition to the cells. Cell lysates were analyzed by Western blot for PAI-1 ([…]) protein expression (top panel) and GAPDH served as a loading control (bottom panel).
(In western blotting, separated proteins are transferred to a membrane and probed.)

Data set [2] deals with TGF-β1-induced Smad3-driven (CAGA12-lux) transcriptional activity. Kind of data set: Luciferase reporter assay in HEK293-(CAGA)12 cells. It counts as cell-based.
The nature of data set [3]: Size-exclusion chromatography on Superdex Peptide 10/300GL column. To be noted: for formation of aggregates by size-exclusion chromatography: peptide in PBS, Superdex Peptide 10/300GL, 0.6 ml/min; for Aggregation?: size-exclusion chromatography, peptide dissolved in PBS. It counts as physicochemical. Here is the method:
Approximately 200 μg of each peptide X (40 amino acids), X-1 (28 amino acids), peptide A (161 amino acids), P11 (11 amino acids), P16 (16 amino acids), P21 (21 amino acids, P16-2 (16 amino acids, scrambled sequence control), X-3 (16 amino acids) and X-4 (11 amino acids) were dissolved in phosphate-buffered saline (PBS) and loaded onto a Superdex Peptide 10/300GL column. The column was eluted with PBS at a flow rate of 0.6 mL/min and eluents were analyzed for peptide content by measuring relative absorbance at a wavelength of 215 nm. (FIGS. 3A and 3B) The data is plotted with relative absorbance (Y-axis) against elution volume (X-axis). Peptides 1-9 are color coded (A—peptides (1) to (5); B (peptides (6) to (9)). As shown on panel A, peptide X (peptide 1, black line) elution profile indicated two major peaks at approximately 8 mL and 11 mL which correspond to molecular weights greater than 12.4 kDa. The theoretical molecular weight of peptide X is 4.7 kDa which is expected to elute from the column at approximately 15 mL. Under the conditions tested, peptide X existed as high molecular weight aggregates with minimal soluble (monomeric) form. On the other hand, P16 (peptide 5, green line) elution profile indicated a broad peak between 14-22 mL which is expected to contain peptides of between 0.1 and 6 kDa and is consistent with its theoretical molecular weight of 2.01 kDa.
FIG. 4 illustrates the standard curve used for size-exclusion chromatography of standard peptides using the Superdex Peptide 10/300 GL column (results provided in FIG. 3). A pool of standard peptides of various molecular weights (1. cytochrome c (Mr 12.384 kDa) 1 mg/mL; 2. aprotinin (Mr 6.512 kDa) 2 mg/mL; 3. vitamin B12 (Mr 1.355 kDa) 0.1 mg/mL; 4. (Gly)3 (Mr 0.189 kDa) 0.1 mg/mL; 5. Gly (Mr 0.075 kDa) 7.8 mg/mL) were subjected to size-exclusion chromatography using the Superdex Peptide 10/300 GL column (flow rate 0.5 ml/min at room temperature, sample volume of 50 μL, eluent 0.05M phosphate, 0.15 M NaCl, ph 7.0). The resulting chromatogram (absorbance at 215 nm (in mAU, left Y axis) and conductivity (in mS/cm, right Y axis, in function of volume of elution (in mL)) indicates the elution profiles of the above peptides with high MW peptides eluting in earlier fractions and lower MW peptides eluting in later fractions as expected. The molecular weights of peptides were plotted against elution volume generating a standard curve (not shown).
More specifically, approximately […] of each peptide X (40 amino acids), X-1 (28 amino acids), peptide A (161 amino acids), P11 (11 amino acids), P16 (16 amino acids), P21 (21 amino acids, P16-2 (16 amino acids, scrambled sequence control), X-3 (16 amino acids) and X-4 (11 amino acids) were dissolved in phosphate-buffered saline (PBS) and loaded onto a Superdex Peptide 10/300GL column. The column was eluted with PBS at a flow rate of 0.6 ml/min and eluants were analyzed for peptide content by measuring relative absorbance at a wavelength of 215 nm. The data were plotted with relative absorbance (Y-axis) against elution volume (X-axis). […] The theoretical molecular weight of peptide X is 4.7 kDa which is expected to elute from the column at approximately 15 mL. […] P16 (peptide 5) elution profile indicated a peak between 14-22 mL which was expected to contain peptides of between 0.1 and 6 kDa and is consistent with its theoretical molecular weight of 2.01 kDa.
More specifically, a pool of standard proteins of various molecular weights were subjected to size-exclusion chromatography using the Superdex Peptide 10/300 GL column. The resulting chromatogram indicated the elution profiles of the peptides with high molecular weight peptides eluting in earlier fractions and lower molecular weight peptides eluting in later fractions as expected. The molecular weights of peptides were plotted against elution volume generating a standard curve (not shown) and was used to calculate molecular weights of the CD109-based peptides. […]
On the technique in general: In gel filtration, larger molecules generally elute earlier.

Setting [4] is: 10 nM peptide, 100 pM TGF-β1, 18 hours (FIG. 6).

Turning to ETWIWLDTNMG [Peptide P11], in data set [1], the “inhibition of TGF-β1-induced PAI-1 protein production” value is reported as “not”. In addition, the “inhibition of TGF-β1-induced CAGA12-lux activity” value in data set [2] (setting [4]) is “did not”. Besides, in data set [3], the “formation of aggregates by size-exclusion chromatography” value (from here on “formation of aggregates”) was “did not” and the “Aggregation?” value was “Not aggregated”.
For the sequence GSRIYQEFEVT [Peptide X-4], in data set [2] (setting [4]), the “inhibition of TGF-β1-induced CAGA12-lux activity” value is listed as “did not”. Further, in data set [3], the “formation of aggregates” value was “did not” and the “Aggregation?” value is on record as “Not aggregated”.
Turning to “ILNTWMDSTQIGYRWE [Peptide P16-1, scrambled peptide of 16 aa, control, reference compound]”, the “inhibition of TGF-β1-induced PAI-1 protein production” value in data set [1] is “no effect”.
LDTNMGSRIYQEFEVT [Peptide X-3]: in data set [3], the “formation of aggregates” value is recorded as “formed aggregates” and the “Aggregation?” value is reported as “Aggregated”.
For the sequence “WINMDTGQLIEQRYTS [Peptide P16-2, reference compound]”, in data set [2] (10 nM or 5 nM peptide, 100 pM TGF-β1, 18 hours (FIG. 5)), the “inhibition of TGF-β1-induced CAGA12-lux activity” value was “no inhibitory effect”. Further, the “inhibition of TGF-β1-induced CAGA12-lux activity” value in data set [2] (setting [4]) is reported as “no effect”. Moreover, in data set [3], the “formation of aggregates” value is recorded as “did not” and the “Aggregation?” value is given as “Not aggregated”.
